Results published in the supplement of paper PMC9170038.

Test system: MS2 coat protein
Experiment: apparent KD of MS2 coat protein; higher = weaker reporter binding
Conditions: Eterna round: R107
How it was run: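 Designed RNA switches, transcribed on-chip from Illumina sequencing clusters, were titrated with SNAP-549-labelled MS2 coat protein from 0.7 or 1.5 nM to 3 µM in twofold steps. The solution was 100 mM Tris-HCl pH 7.5, 80 mM KCl, 4 mM MgCl2, with constant ligand or without it. Apparent KD is the median over each design's normalised cluster binding-curve fits.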

[1] = input ligand: theophylline 20 uM
[2] = input ligand: theophylline 2 mM
[3] = input ligand: tryptophan 2.4 mM

Sequence	apparent KD of MS2 coat protein (input ligand: arginine 13.2 mM) [nM]	apparent KD of MS2 coat protein (input ligand: none) [nM]	apparent KD of MS2 coat protein [1] [nM]	apparent KD of MS2 coat protein [2] [nM]	apparent KD of MS2 coat protein [3] [nM]
CUCCCGUGGUCGGCCGCCACUGGAGGCCUUGCGCGACAUGAGGAUCACCCAUGUUGGCCCGGCGUCAGGACCGGGAUCGCGUGAG [#1 Same State - Tryptophan B Attempt #10 (HarryS)]	8.86	14.4	18.8	12.2	10.1
CUGUACAUCUCGGCCGCCACUGCAACAUGUACACAUGGACAUGUACAUGAGGAUCACCCAUGUGGCAGGACCGGGAGGUGUGCAG [SSTryp B #28]	99.8		211	309	
CUGUACAUCUCGGCCGCCACUGCUGACAUGGGAGUCACCCAUGUCCACAUGAGGAUCACCCAUGUCAGGACCGGGAGGUGUGCAG [SSTryp B #25]	87.4		272	287	
CUUGGCUGUGCGGCCGCCACUGACUCAUCCUGCAUUACAUGAGGAUCACCCAUGUUGCGGCCUCCCAGGACCGGGCAUAGCCUGC [Veered]	102		397	673	
GAAGGAACCGGAAGGAGCGGGUCCUUAGCCACUACAUGAGGAUCACCCAUGUCCGGGAGGUCCCAGGUAGGUCGCCGGUCUUAAA [Gelece]	63.9	277	324	934	267
GAAGGAGAGUGAUCCACUCCUUCUCUGGAAGGAGCGAGCGAAAGCUCAGGUAGGUCGCCAGAAACAUGAGGAUCACCCAUGUAAU [(A)''-(M)'-(A)'-(Arg1)-(Arg2)-(M1)-(M2)_Design7]	61.2	104	92.6	123	82.3
GACAUGAGGAUCACCCAUGUACCGCGAGAAGGAGCGCGGAUAAACGCAGGUAGGUCGCUCGUGGGCUUUUAUUCAAUCGAAAGCU [Zaesar]	26.8	50.5	106	165	48
GACCGGUUAUAGUGCGAUUGUCUUGUGGAAGGAGCGCAGAGGACUGCAGGUAGGUCGCCACAUGAGGAUCACCCAUGUCAGGAUA [Tirevete]	33.8	23.7	33.4	43.9	22.3
GACGCAUGAGUUGUAAAAGCUCAUGGGUCGCGAGGACCGGUACGGCCGCCACUCGGCUGUACAUGAGGAUCACCCAUGUCAGGGU [#1 Same State - Tryptophan A Attempt #28 (HarryS)]	154		434	886	
GACGCAUGAGUUGUAACAGCUCAUGGGUCGCGAGGACCGGUACGGCCGCCACUCGGCUGUACAUGAGGAUCACCCAUGUCAGGGU [#1 Same State - Tryptophan A Attempt #29 (HarryS)]	24.7	346	1320	1310	451
GAGACAUCGGGAAGGAGCGCAUCCAAACCACACAUGAGGAUCACCCAUGUAUAAAUAUGCAUGCAGGUAGGUCGCCCGGUAUCCC [Tiisqure]	26.5	27.8	40.2	35	28.9
GAGCUCGUGGACUGGCGUGCUCCGCUCCGUCGAGGACCGGUACGGCCGCCACUCGACAUGAGGAUCACCCAUGUGCGAGCUCGCU [#1 Exclusion - Tryptophan A Attempt #22 (HarryS)]	11.4	46.2	113	117	21.4
GAGUCCGCGGCGGCCGCCACUCGCGGCGCCACAUGGCGCCGGGACAUGAGGAUCACCCAUGUCCCGAGGACCGGGCCGAUCCUCA [Same State Typrtophan B GF4]	16.6	18.1	35.6	33.9	14.5
GAUAGUUGAAGGGAUACCAGCCUGGACAUGAGGAUCACCCAUGUAGCAUGUUUGAAACUGGGCCCUUGGCAGCCCAUAUUGUGUA [#11 Same State - Theophylline B]	16.6		25.4		22.8
GAUCCGUACCAGACCUUCAAUGGACUCAGUCGAGGACCGGUACGGCCGCCACUCGGAGAAGAACAUGAGGAUCACCCAUGUGAUG [theeternabot_exclusion_MS2_Trp_A_36]	23.9		47	34.9	
GAUUGGUAUAGAAGGAGCGUCGAAAAUGGGUAAACAUGAGGAUCACCCAUGUAAAGGGAACGACAGGUAGGUCGCUAUAUUAAUC [AstromonsSSArgB#30]	146	174	256	272	200
GCACCAGGUACGGAUACCAGAAUUUGCCAAUUGGGUGAACAUGAGGAUCACCCAUGUUAUUUCCCUUGGCAGCCGUACCUGGUGC [ETB NP+V+V2 #10]	8.88		13.2		9.45
GCACCAGGUACGGAUACCAGACAUUGCCGUUAGGGUGAACAUGAGGAUCACCCAUGUUUUGUCCCUUGGCAGCCGUACCUGGUGC [ETB NP+V+V2 #7 Same Structure]	9.58	9.57	14.7	86.5	9.85
